Measurements as given in patent US20240084027A1 (BEIJING MABWORKS, published 2024).
Like-named read-outs stand apart in the source and are kept apart here.

Tests used:
[1] = target: T1, human PD-L1 on HEK293A/human PD-L1 cells (human, UniProt Q9NZQ7 19-290); assay: FACS blocking assay on HEK293A/human PD-L1 cells; blocked ligand PD-1-Fc
Procedure: (§1) The bispecific antibodies were tested for their blocking activity on PD-1-PD-L1 binding by FACS using the HEK293A cells stably expressing human PD-L1 molecules as prepared in Example 1. Briefly, a 96-well plate was seeded with 10⁵ HEK293A/human PD-L1 cells in 100 μl cell culture medium, and then added with 50 μl serially diluted anti-PD-L1 antibody 56E5VH5VL4 or MBS307-3 molecules. After incubation at 4° C. for 1 h. the plate was washed with PBST for 3 times, added with 100 μl 200 μg/ml PD-1-Fc fusion proteins (Cat #:10377-10211, Sino Biological, CN), incubated at 4° C. for 1 h, washed with PBST for 3 times, and added with 1:500 diluted PE-goat anti-human IgG (Cat #:PAI-86078, Thermofisher, USA). After incubation at 4° C. for 1 h, the plate was washed with PBST for 3 times and measured for fluorescence using a FACS machine (BD).

[2] = target: T1, human PD-L1 on HEK293A/human PD-L1 cells; assay: FACS on HEK293A/human PD-L1 cells
Procedure: (§2) The bispecific antibodies as prepared above were tested for their binding capability to cell surface human, monkey and mouse CD40 proteins by FACS, using the HEK293A cells prepared in Example 1 that stably expressed human, monkey or mouse CD40. Briefly, a 96-well plate was seeded with 10⁵ HEK293A cells in 50 μl PBS, and then added with 100 μl serially diluted anti-CD40 antibody 714VH2VL2 and the bispecific antibodies of the disclosure (starting concentration at 40 μg/ml). After incubation at 4° C. for 1 h, the plate was washed by PBST for 3 times. The plate was added with 1:500 diluted APC-goat anti-mouse IgG (Cat #:405308, BioLegen, USA), incubated at 4° for 1 h, washed with PBS for 3 times, and subjected to fluorescence measurement in a FACS machine (BD).
(§3) Following the protocols in Example 4 and Example 5, the bi- or multi-specific antibodies of the disclosure were tested for their binding capability to human PD-L1 and human CD40 proteins by FACS using the HEK293A cells prepared in Example 1 that stably expressed human PD-L1 or human CD40.

[3] = target: T1, human PD-L1 on HEK293A/human PD-L1 cells; assay: FACS on HEK293A/human PD-L1 cells; remark: listed apart in the source
Procedure: as §2, §3

[4] = target: T1, human PD-L1 on HEK293A/human PD-L1 cells; assay: FACS on HEK293A/human PD-L1 cells; remark: listed apart in the source
Procedure: as §2
(§4) Following the protocol of Example 4, the bispecific antibodies were tested for their binding capability to cell surface human, or monkey PD-L1 proteins by FACS, using the HEK293A cells prepared in Example 1 that stably expressed human or monkey […].

[5] = target: monkey PD-L1 on HEK293A/monkey PD-L1 cells (monkey, UniProt Q9NZQ7 19-290 (human entry)); assay: FACS on HEK293A/monkey PD-L1 cells
monkey PD-L1 on HEK293A/monkey PD-L1 cells, sequence (Q9NZQ7 other isoform, or with tags, fused parts or gaps limits assumed): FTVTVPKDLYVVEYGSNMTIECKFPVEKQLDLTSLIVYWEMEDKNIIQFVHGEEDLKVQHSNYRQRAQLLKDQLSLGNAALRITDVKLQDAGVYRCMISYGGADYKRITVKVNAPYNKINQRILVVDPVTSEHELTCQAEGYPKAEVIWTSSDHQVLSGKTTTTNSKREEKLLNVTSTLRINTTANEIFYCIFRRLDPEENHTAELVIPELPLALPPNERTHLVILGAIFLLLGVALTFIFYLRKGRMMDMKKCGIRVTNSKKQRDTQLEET
Procedure: as §2, §4

[6] = target: T1, human PD-L1 on HEK293A/human PD-L1 cells; assay: FACS blocking assay on HEK293A/human PD-L1 cells; blocked ligand PD-1-Fc; remark: listed apart in the source
Procedure: as §1
(§5) Following the protocol of Example 7, the bi- or multi-specific antibodies were tested for their capability to block PD-1-PD-L1 binding by FACS, using the HEK293A cells prepared in Example 1 that stably expressed human PD-L1 molecules.

[7] = target: T1, human PD-L1 on HEK293A/human PD-L1 cells; assay: as above; remark: listed apart in the source
Procedure: as §1, §5

[8] = target: T1, human PD-L1 on HEK293A/human PD-L1 cells; assay: FACS on HEK293A/human PD-L1 cells; remark: listed apart in the source
Procedure: as §2, §3

[9] = target: T2, monkey CD40 on HEK293A/monkey CD40 cells (monkey, UniProt P25942 21-277 (human entry)); assay: FACS on HEK293A/monkey CD40 cells
T2 chain: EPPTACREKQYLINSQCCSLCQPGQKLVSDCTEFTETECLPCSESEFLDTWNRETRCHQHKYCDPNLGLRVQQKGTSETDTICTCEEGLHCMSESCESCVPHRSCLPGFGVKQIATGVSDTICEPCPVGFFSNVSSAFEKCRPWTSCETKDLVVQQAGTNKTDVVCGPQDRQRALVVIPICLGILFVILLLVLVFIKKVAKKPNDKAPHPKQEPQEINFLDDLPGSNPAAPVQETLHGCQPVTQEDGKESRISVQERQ
Procedure: as §2

[10] = target: T3, mouse CD40 on HEK293A cells (mouse, UniProt P27512 20-289); assay: FACS on HEK293A cells expressing mouse CD40
T3 sequence: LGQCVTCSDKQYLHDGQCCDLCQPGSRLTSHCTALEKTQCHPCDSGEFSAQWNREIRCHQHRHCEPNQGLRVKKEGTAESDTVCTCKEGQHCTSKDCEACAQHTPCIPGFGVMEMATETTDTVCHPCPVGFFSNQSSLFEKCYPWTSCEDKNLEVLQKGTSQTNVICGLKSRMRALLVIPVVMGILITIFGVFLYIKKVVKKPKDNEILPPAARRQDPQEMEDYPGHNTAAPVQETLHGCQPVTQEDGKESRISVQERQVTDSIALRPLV
Procedure: as §2

[11] = target: T4, human CD40 on HEK293A/human CD40 cells (human, UniProt P25942 21-277); assay: FACS on HEK293A/human CD40 cells
T4 construct: also called HEK-Blue/CD40 cells
Procedure: as §2

T1 sequence (Q9NZQ7 19-290 limits assumed): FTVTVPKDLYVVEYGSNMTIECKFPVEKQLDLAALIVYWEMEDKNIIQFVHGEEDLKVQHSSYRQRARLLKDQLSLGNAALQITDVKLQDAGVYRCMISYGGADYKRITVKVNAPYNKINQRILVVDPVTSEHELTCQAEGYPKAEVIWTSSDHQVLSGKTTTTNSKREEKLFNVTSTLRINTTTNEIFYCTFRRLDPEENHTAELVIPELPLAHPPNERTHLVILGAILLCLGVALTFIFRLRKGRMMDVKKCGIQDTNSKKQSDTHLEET

Binder | IC50 (read off the curve) [1] [mg/L] | EC50 (read off the curve) [2] [mg/L] | EC50 (read off the curve) [3] [mg/L] | EC50 (read off the curve) [4] [mg/L] | EC50 (read off the curve) [5] [mg/L] | IC50 (read off the curve) [6] [mg/L] | IC50 (read off the curve) [7] [mg/L] | EC50 (read off the curve) [8] [mg/L] | binding result [9] | binding result [10] | binding result [11] | EC50 (read off the curve) [9] [mg/L] | binding result [5] | EC50 (read off the curve) [11] [mg/L]
anti-PD-L1 antibody 56E5VH5VL4 (antibody, V domains shown, also called the monospecific anti-PD-L1 antibody; 56E5VH5CL4 [sic]) VH: QVQLQESGPGLVKPSQTLSLTCTVSGGSITSDYWNWIRQHPGNKLEYMGYISYTGSTYYNPSLKSRISITRDTSKNQFSLKLSSVTTADTAVYYCARYRDWDVRAMDYWGQGTTVTVSS VL: DIVMTQSPDSLAVSLGEKVTMNCKSSQSLLISGNQKNFLTWYQQKPGQPPKLLIYWASTRESGVPDRFSGSGSGTDFTLTISSLQAEDLAVYYCQNDFGFPFTFGQGTKVEIK | ~0.06 | ~0.04 | ~0.05 | ~0.07 | ~0.04 | ~0.02 | ~0.06 | ~0.04 |  |  |  |  |  | 
MBS307-2 (bispecific antibody, human IgG1, kappa, L234A L235A, Symmetric: full-length anti-PD-L1 antibody (56E5VH5VL4) with an anti-CD40 scFv at the C terminus of each heavy chain) heavy: QVQLQESGPGLVKPSQTLSLTCTVSGGSITSDYWNWIRQHPGNKLEYMGYISYTGSTYYNPSLKSRISITRDTSKNQFSLKLSSVTTADTAVYYCARYRDWDVRAMDYWGQGTTVTVSSASTKGPSVFPLAPSSKSTSGGTAALGCLVKDYFPEPVTVSWNSGALTSGVHTFPAVLQSSGLYSLSSVVTVPSSSLGTQTYICNVNHKPSNTKVDKKVEPKSCDKTHTCPPCPAPEAAGGPSVFLFPPKPKDTLMISRTPEVTCVVVDVSHEDPEVKFNWYVDGVEVHNAKTKPREEQYNSTYRVVSVLTVLHQDWLNGKEYKCKVSNKALGAPIEKTISKAKGQPREPQVYTLPPSREEMTKNQVSLTCLVKGFYPSDIAVEWESNGQPENNYKTTPPVLDSDGSFFLYSKLTVDKSRWQQGNVFSCSVMHEALHNHYTQKSLSLSPGSGGGGSGGGGSQVQLQESGPGLVKPSDTLSLTCAVSGYSITTNYYWNWIRQPPGKGLEWMGYIKYDGSNNYNPSLKNRITISVDTSKNQFSLKLSSVTAVDTAVYYCARLDYWGQGTLVTVSSGGGGSGGGGSGGGGSGGGSDVVLTQSPLSLPVTLGQPASISCRSSQSLENSNGNTFLNWFQQRPGQSPRLLIYKVSNRFSGVPDRFSGSGSGTDFTLKISRVEAEDVGVYYCLQVTHVPFTFGQGTKLEIK light: not shown |  |  |  | ~0.1 | ~0.04 |  |  |  | binds | no binding (tested: starting concentration at 40 µg/ml) | binds |  |  | 
MBS307-1 (bispecific antibody, human IgG1, kappa, L234A L235A, Both long chains carry linker 1-TGFBII at the C terminus; also called asymmetrical anti-CD40/PD-L1 antibody MBS307-1; MBS307-1-1 + MBS307-1-2) heavy 1: QVQLQESGPGLVKPSDTLSLTCAVSGYSITTNYYWNWIRQPPGKGLEWMGYIKYDGSNNYNPSLKNRITISVDTSKNQFSLKLSSVTAVDTAVYYCARLDYWGQGTLVTVSSASTKGPSVFPLAPSSKSTSGGTAALGCLVKDYFPEPVTVSWNSGALTSGVHTFPAVLQSSGLYSLSSVVTVPSSSLGTQTYICNVNHKPSNTKVDKKVEPKSCDKTHTCPPCPAPEAAGGPSVFLFPPKPKDTLMISRTPEVTCVVVDVSHEDPEVKFNWYVDGVEVHNAKTKPREEQYNSTYRVVSVLTVLHQDWLNGKEYKCKVSNKALPAPIEKTISKAKGQPREPQVYTLPPSREEMTKNQVSLWCLVKGFYPSDIAVEWESNGQPENNYKTTPPVLDSDGSFFLYSKLTVDKSRWQQGNVFSCSVMHEALHNHYTQKSLSLSPGGGGSGGGGSGGGGSGGGGSGIPPHVQKSVNNDMIVTDNNGAVKFPQLCKFCDVRFSTCDNQKSCMSNCSITSICEKPQEVCVAVWRKNDENITLETVCHDPKLPYHDFILEDAASPKCIMKEKKKPGETFFMCSCSSDECNDNIIFSEEYNTSNPD light 1: DVVLTQSPLSLPVTLGQPASISCRSSQSLENSNGNTFLNWFQQRPGQSPRLLIYKVSNRFSGVPDRFSGSGSGTDFTLKISRVEAEDVGVYYCLQVTHVPFTFGQGTKLEIKRTVAAPSVFIFPPSDEQLKSGTASVVCLLNNFYPREAKVQWKVDNALQSGNSQESVTEQDSKDSTYSLSSTLTLSKADYEKHKVYACEVTHQGLSSPVTKSFNRGEC heavy 2: QVQLQESGPGLVKPSQTLSLTCTVSGGSITSDYWNWIRQHPGNKLEYMGYISYTGSTYYNPSLKSRISITRDTSKNQFSLKLSSVTTADTAVYYCARYRDWDVRAMDYWGQGTTVTVSSASTKGPSVFPLAPSSKSTSGGTAALGCLVKDYFPEPVTVSWNSGALTSGVHTFPAVLQSSGLYSLSSVVTVPSSSLGTQTYICNVNHKPSNTKVDKKVEPKSCDKTHTCPPCPAPEAAGGPSVFLFPPKPKDTLMISRTPEVTCVVVDVSHEDPEVKFNWYVDGVEVHNAKTKPREEQYNSTYRVVSVLTVLHQDWLNGKEYKCKVSNKALPAPIEKTISKAKGQPREPQVYTLPPSREEMTKNQVSLSCAVKGFYPSDIAVEWESNGQPENNYKTTPPVLDSDGSFFLVSKLTVDKSRWQQGNVFSCSVMHEALHNHYTQKSLSLSPGGGGSGGGGSGGGGSGGGGSGIPPHVQKSVNNDMIVTDNNGAVKFPQLCKFCDVRFSTCDNQKSCMSNCSITSICEKPQEVCVAVWRKNDENITLETVCHDPKLPYHDFILEDAASPKCIMKEKKKPGETFFMCSCSSDECNDNIIFSEEYNTSNPD light 2: not shown |  |  |  | ~0.3 |  |  |  |  |  | no binding (tested: starting concentration at 40 µg/ml) |  | ~0.2 | binds | ~0.2
